Measured values reported in US7879328B2 (Human Genome Sciences, Inc., priority 2000, dated 2011).

Experiments:
[1] = tested on: HIV; details: greater activity; cited from earlier work
[2] = target: mouse B Lymphocyte Stimulator (Mus musculus, UniProt Q9WU72); experiment: Phage ELISA on immobilized mouse B Lymphocyte Stimulator; assay type: binding; details: phage scFv; antigen coated at 1 μg/ml
Description: To determine the specificity of the 48 scFvs, a phage ELISA was performed against human and mouse B Lymphocyte Stimulator, and a panel of related and unrelated human antigens: Fas ligand, TRAIL, TNFα, TNFβ, and PBS, The: Fas ligand, TRAIL, TNFα, and TNFβ antigens were obtained from R&D Systems, Minneapolis, Minn., Individual E. coli colonies containing phagemid were inoculated into 5 ml 2YTAG and incubated at 37° C. for 4 hours, shaking. M13KO7 helper phage (Pharmacia) was added to each tube to a MOI of 10 and incubated […] 1 hour, the first 30 minutes static and the final 30 minutes with gentle shaking. Cells were pelleted by centrifugation at 3,500 rpm for 10 minutes and the supernatant discarded. Cell pellets were resuspended in 5 ml 2TYAK and incubated at 30° C. overnight with shaking. The next day, the cells were pelleted by centrifugation at 3,500 rpm for 10 minutes. The phage-containing supernatant (5 ml) was carefully transferred to a fresh tube, 1 ml of 6MPBS was added, and the tube was incubated at room temperature for 1 hour to pre-block the phage prior to ELISA.
All antigens were coated at 1 μg/ml. ELISAs were performed essentially as described in Example 2. The only exception to this being the detection of phage antibody binding to mouse B Lymphocyte Stimulator where the step involving incubation with the HRP-labelled anti-mouse polymer was omitted. Binding to mouse B Lymphocyte Stimulator was detected with TMB as in Example 2.
To determine the specificity of the 33 scFvs, a phage ELISA was performed as described in Example 4 against human and mouse B Lymphocyte Stimulator, and a panel of related human antigens: TRAIL, LIGHT, TNFα, TNFβ, and an uncoated well (PBS only).

[3] = target: T1, murine membrane-bound B Lymphocyte Stimulator on P388 plasma membranes (Mus musculus, UniProt Q9WU72); experiment: Competition ELISA on P388 plasma membranes; assay type: binding; details: phage scFv; for competition of P388 plasma membrane binding by HIS-tagged B Lymphocyte Stimulator: human competitor; for recognition of P388 plasma membranes: membranes coated at 10 μg/ml
T1 construct: endogenous in cells; host or cells: P388.D1 cells, plasma membrane fraction coated on plates
T1 sequence (Q9WU72 whole entry): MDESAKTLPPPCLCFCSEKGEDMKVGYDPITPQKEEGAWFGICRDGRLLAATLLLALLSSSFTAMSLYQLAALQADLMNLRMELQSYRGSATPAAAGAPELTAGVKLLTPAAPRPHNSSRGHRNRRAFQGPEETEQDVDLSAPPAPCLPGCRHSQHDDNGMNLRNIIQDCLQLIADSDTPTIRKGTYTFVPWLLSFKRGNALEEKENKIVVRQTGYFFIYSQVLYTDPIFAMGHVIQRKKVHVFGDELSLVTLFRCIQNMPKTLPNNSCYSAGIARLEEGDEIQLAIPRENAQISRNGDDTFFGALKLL
Description: The ability of the 5 scFvs listed in Table 8 to also recognize murine membrane-bound B Lymphocyte Stimulator was determined using a competition ELISA. This assay assesses the ability of test phage scFvs to bind to the membrane-bound form of B Lymphocyte Stimulator on the murine cell line, P388, plasma membranes in the presence of different forms of competing human B Lymphocyte Stimulator. Competing B Lymphocyte Stimulator was either presented as the His-tagged form of B Lymphocyte Stimulator, or soluble B Lymphocyte Stimulator. ScFvs that recognize mouse membrane-bound B Lymphocyte Stimulator would give an ELISA signal on the P388 plasma membranes that is competed out by pre-incubation with HIS-tagged B Lymphocyte Stimulator but not by pre-incubation with soluble B Lymphocyte Stimulator.
P388.D1 cells are a mouse monocyte-macrophage like cell line. They were cultured in L15 medium supplemented with 2 mM L-glutamine, 10% CS, 10U penicillin, 100 µg/ml streptomycin (all reagents from Sigma). Cells were split 1:4 every 3-4 days to maintain a cell density of 2−8×10^5 per ml. A fresh aliquot of cells was thawed from liquid nitrogen every 6 weeks. Plasma membrane fractions were prepared as described in Example 2.
P388 plasma membranes ([…] per well) were coated at 10 μg/ml in PBS onto Falcon 96-well plates overnight at 4° C. The method is otherwise essentially as described Example 16.

mouse B Lymphocyte Stimulator, sequence (Q9WU72 127-309 limits assumed): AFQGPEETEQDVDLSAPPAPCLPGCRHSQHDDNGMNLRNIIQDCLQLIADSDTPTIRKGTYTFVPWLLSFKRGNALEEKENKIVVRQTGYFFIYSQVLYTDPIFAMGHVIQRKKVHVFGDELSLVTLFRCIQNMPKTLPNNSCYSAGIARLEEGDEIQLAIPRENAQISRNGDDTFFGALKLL

Molecule	activity relative to HBY097 [1] [fold]	binding to immobilized mouse B Lymphocyte Stimulator [2]	competition of P388 plasma membrane binding by HIS-tagged B Lymphocyte Stimulator [3]	recognition of P388 plasma membranes [3]
CC[C@H]1C(=O)Nc2ccc(F)cc2N1C(=O)OC(C)C [GW-420867X]	25	–	–	–
I037E07: scFv, panel 1, binds soluble and membrane-bound B Lymphocyte Stimulator (protein, listed as Homo sapiens) scFv: QVQLVQSGAEVKKPGASVKVSCKASGYTFTNYGITWVRQAPGQGLEWMGWISAYNGNRNYAQKLQGRVTMTTDTSTSTAYMELRSLRSDDTAVYYCVRDGIDILLVPAALMDVWGRGTMVTVSSGGGGSGGGGSGGGGSQSVLTQPASVSGSPGQSITISCTGTSSDVGGYNYVSWYQQHPGKAPKLMIYEGSKRPSGVSNRFSGSKSGNTASLTISGLQAEDEADYYCSSYTTRSTRVFGGGTKLTVLG	–	did not bind	–	–
I037E12: scFv, panel 1, binds soluble and membrane-bound B Lymphocyte Stimulator (protein, listed as Homo sapiens) scFv: EVQLVQSGAEVKKPGASVKVSCKASGYTFTNYGITWVRQAPGQGLEWMGWISAYNGNRNYAQKLQGRVTMTTDTSTSTAYMELRSLRSDDTAVYYCVRDGIDILLVPAALMDVWGKGTLVTVSSGGGGSGGGGSGGGGSQSVLTQPASVSGSPGQSITISCTGTSSDVGGYNYVSWYQQHPGKAPKLMIYEGNKRPSGVSNRFSGSKSGNTASLTISGLQAEDEADYYCSSYTTRSTRVFGGGTKLTVLG	–	did not bind	–	–
I079E02: scFv, panel 3, binds membrane-bound B Lymphocyte Stimulator (protein, listed as Homo sapiens) scFv: QVQLVQSGAEVKKPGSSVKVSCKASGGTFSSYAISWVRQAPGQGLEWMGGIIPIFGTANYAQKFQGRVTITADKSTSTAYMELSSLRSDDTAVYYCARDSGSYYYDAFDIWGKGTMVTVSSGGGGSGGGGSGGGGSDIVMTQSPSTLSASVGDRVTITCRASQGISSWLAWYQQKPGKAPKLLIYAASSLQSGVPSRFSGSGSGTDFTLTISSLQPEDFATYYCQQANSFPLTFGGGTKVEIKR	–	–	competed out	recognize
I082H08: scFv, panel 3, binds membrane-bound B Lymphocyte Stimulator (protein, listed as Homo sapiens) scFv: EVQLVESGGGLVQPGGSLRLSCAASGFTFSDYGMHWVRQRPGKGLEWIAFIGSDGSNKYYGDTVKGRFTISRDNAKNSLYLQMNSLRAEGTAVYYCARDWDMDVWGQGTMVTVSSGGGGSGGGGSGGGGSSHVILTQPRSVSGSPGQSVTISCTGTSSDVGGYHYVSWYQQHPGKAPRLMIYEVTKRPSGVSNRFSGSKSGNTASLTISGVQAEDEADYYCSSYTSASTVIFGGGTKLTVLG	–	–	competed out	recognize
I099D03: scFv, panel 3, binds membrane-bound B Lymphocyte Stimulator (protein, listed as Homo sapiens) scFv: QVQLVQSGAEVKKPGASVRVSCKSSGYTFTNYGISWVRQAPGQGLEWMGWISNNNGKTYYAQKVQGRVTMTTDTSTSTDYMELRGLRSDDTAIYYCARDNGGGTIGFDYWGRGTLVTVSSGGGGSGGGGSGGGGSAQAVLTQPSSVSGAPGQRVTMSCTGSSSNIGAGYDVHWYQQLPGTAPKLLIYDNTNRPSGVPDRFSGSRSGTSASLAITGLQAEDEADYFCQSYDITLSAVFGTGTKVTVLG	–	–	competed out	recognize
I008C03: scFv, panel 1, binds soluble and membrane-bound B Lymphocyte Stimulator (protein, listed as Homo sapiens) scFv: QMQLVRSGGGVVQPGRSLRLSCAASGFTFSSYGMHWVRQAPGKGLEWVSVTYSGGNTNYADSVRGRFTISRDNSKNTLYLQMNSLRAEDTAVYYCAREGSYDILTGYYVGVGRMDVWGKGTLVTVSSGGGGSGGGGSGGGGSSELTQDPAVSVALGQTVRITCQGDSLRSYYTNWFQQKPGQAPLLVVYAKNKRPSGIPDRFSGSSSGNTASLTITGAQAEDEADYYCNSRDSSGNHVVFGGGTKLTVLG	–	did not bind	–	–
